One molecule from patent publication US20180194853A1 (published 2018) can be followed below.

One assay deals with T1, recombinant human γc (human, UniProt P31785 23-262).
T1 construct: Recombinant chain immobilised on the SPR chip and used as ELISA antigen; also called common γ chain; CD132
T1 sequence (looked up): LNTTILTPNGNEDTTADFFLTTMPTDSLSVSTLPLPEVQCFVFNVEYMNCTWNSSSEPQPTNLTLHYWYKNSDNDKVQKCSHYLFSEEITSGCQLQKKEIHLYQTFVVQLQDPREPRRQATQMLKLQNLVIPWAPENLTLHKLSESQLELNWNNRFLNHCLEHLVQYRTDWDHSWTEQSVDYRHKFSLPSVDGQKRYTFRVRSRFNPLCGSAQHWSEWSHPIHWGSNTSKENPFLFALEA
Description: SPR, receptor chain immobilised on the chip, antibody flowed over. On the procedure:
(§1) Association/dissociation of the anti-IL-2Rβ/γc bispecific antibody to/from the receptor chains was measured in Surface Plasmon Resonance using recombinant IL-2Rβ or γc chains immobilised on a chip, and flowing various concentrations of the antibody over the surface.
(In general: In SPR one partner is held on a chip, and binding of the other changes the refractive index at the surface.)

The target in another assay is T2, recombinant human IL-2Rβ (human, UniProt P14784 27-240).
T2 construct: Recombinant chain immobilised on the SPR chip and used as ELISA antigen; also called CD122; interleukin 2 receptor β
T2 sequence (looked up): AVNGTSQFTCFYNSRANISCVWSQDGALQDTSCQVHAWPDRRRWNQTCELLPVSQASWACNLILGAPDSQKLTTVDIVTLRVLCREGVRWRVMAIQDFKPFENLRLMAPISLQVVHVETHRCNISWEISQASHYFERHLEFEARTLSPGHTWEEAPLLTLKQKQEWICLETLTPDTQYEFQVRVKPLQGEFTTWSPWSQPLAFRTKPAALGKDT
Described as above. As to the method: as §1

Broadly, the Kd is the equilibrium constant for the complex coming apart.

B1: bispecific anti-IL-2Rβ/γc antibody P2H7/P2B9 (bispecific antibody)
chain 1: not shown
chain 2: QVQLQESGPGLVKPSETLSLTCTVSGGSISSSSYYWGWIRQPPGKGLEWIGSIYYSGSTYYNPSLKSRVTISVDTSKNQFSLKLSSVTAADTAVYYCAGDILTGYALDYWGQGTLVTVSSGGGGSGGGGSGGGGSSYELTQPPSMSVSPGQTARITCSGDALPKQFAFWYQQKPGQAPVLVIYKDTERPSGIPERFSGSSSGTTVTLTITGVQAEDEADYYCQSPDSSGTVEVFGGGTKLTVLNSGAGTAAATHTCPPCPAPEAAGGPSVFLFPPKPKDTLMISRTPEVTCVVVDVSHEDPEVKFNWYVDGVEVHNAKTKPREEQYNSTYRVVSVLTVLHQDWLNGKEYKCKVSNKALPAPIEKTISKAKGQPREPQVCTLPPSRDELTKNQVSLSCAVKGFYPSDIAVEWESNGQPENNYKTTPPVLDSDGSFFLVSKLTVDKSRWQQGNVFSCSVMHEALHNHYTQKSLSLSPGK
With B1, the Kd worked out at 79.8 nM with recombinant human γc and 101 nM with recombinant human IL-2Rβ.
